In general, Kd refers to a measure of binding affinity in units of concentration.

Consider five molecules from article PMC6506263 (The Biochemical journal, 2019).

Data set [1] concerns the target TorS sensor domain (Escherichia coli) (UniProt P39453). The conditions noted are these: cited from earlier work.
The data set “native gel or EMSA” concerns the molecule itself. Briefly: native gel or EMSA.
The data set “cross-linking” concerns the molecule itself. Briefly: cross-linking.

Residue numbers refer to the chain shown, from its start. In names and notes the source's numbering stands.

As to “TorS sensor domain (from UniProt P39453)”, the dissociation constant Kd in data set [1] was 49.6 µM.

B1: CusScp-long, cytoplasmic domain of CusS with C-terminal Strep-Myc-Strep-FLAG-HA-Strep tags, wild-type (domain or fragment, E. coli, UniProt P77485 208-480, looked up)
chain: KGHAPIRSVSRQIQNITSKDLDVRLDPQTVPIELEQLVLSFNHMIERIEDVFTRQSNFSADIAHEIRTPITNLITQTEIALSQSRSQKELEDVLYSNLEELTRMAKMVSDMLFLAQADNNQLIPEKKMLNLADEVGKVFDFFEALAEDRGVELRFVGDKCQVAGDPLMLRRALSNLLSNALRYTPTGETIVVRCQTVDHLVQVIVENPGTPIAPEHLPRLFDRFYRVDPSRQRKGEGSGIGLAIVKSIVVAHKGTVAVTSDARGTRFVITLPA
Regarding B1, the binding result in the data set “native gel or EMSA” was “binds”.

B2: CusScp-short, cytoplasmic domain of CusS (amino acids 208–480) with C-terminal 6xHis tag, wild-type (domain or fragment, E. coli)
chain: MASKGHAPIRSVSRQIQNITSKDLDVRLDPQTVPIELEQLVLSFNHMIERIEDVFTRQSNFSADIAHEIRTPITNLITQTEIALSQSRSQKELEDVLYSNLEELTRMAKMVSDMLFLAQADNNQLIPEKKMLNLADEVGKVFDFFEALAEDRGVELRFVGDKCQVAGDPLMLRRALSNLLSNALRYTPTGETIVVRCQTVDHLVQVIVENPGTPIAPEHLPRLFDRFYRVDPSRQRKGEGSGIGLAIVKSIVVAHKGTVAVTSDARGTRFVITLPALE
On to B2, for which the binding result in the data set “native gel or EMSA” was “binds”.

B3: N-terminal Strep-tagged CusS(39–187) wild-type, periplasmic sensor domain of the histidine kinase CusS (domain or fragment, E. coli)
chain: VKVHFAEQDINDLKEISATLERVLNHPDETQARRLMTLEDIVSGYSNVLISLADSQGKTVYHSPGAPDIREFTRDAIPDKDAQGGEVYLLSGPTMMMPGHGHGHMEHSNWRMINLPVGPLVDGKPIYTLYIALSIDFHLHYINDLMNKLEGSA
For B3, the binding result in the data set “cross-linking” is recorded as “binds”.

B4: N-terminal Strep-tagged CusS(39–187)-IIA (M133I/M135I/H145A), internal metal binding site eliminated (domain or fragment, E. coli)
chain: B3 chain with M95I, M97I, H107A
Turning to B4, in the data set “cross-linking”, the binding result is listed as “binds”.
